B1: GpH7-B3 variant L328_06M/GpL16-k0 (antibody, human IgG1, kappa)
heavy: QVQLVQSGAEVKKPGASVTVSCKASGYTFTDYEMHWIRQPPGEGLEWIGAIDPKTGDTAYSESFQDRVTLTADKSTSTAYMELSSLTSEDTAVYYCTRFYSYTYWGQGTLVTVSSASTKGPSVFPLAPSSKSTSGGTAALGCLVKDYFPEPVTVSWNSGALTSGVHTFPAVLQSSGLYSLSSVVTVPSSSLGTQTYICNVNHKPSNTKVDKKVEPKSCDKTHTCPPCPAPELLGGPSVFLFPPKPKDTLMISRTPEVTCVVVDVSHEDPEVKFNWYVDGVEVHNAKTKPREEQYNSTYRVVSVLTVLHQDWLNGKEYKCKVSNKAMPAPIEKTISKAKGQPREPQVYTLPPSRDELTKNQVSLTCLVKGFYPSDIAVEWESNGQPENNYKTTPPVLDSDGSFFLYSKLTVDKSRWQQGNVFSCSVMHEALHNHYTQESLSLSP
light: DIVMTQSPLSLPVTPGEPASISCQASESLVHSNRNTYLHWYLQKPGQSPQLLIYKVSNRFSGVPDRFSGSGSGTDFTLKISRVEAEDVGVYYCSQNTHVPPTFGQGTKVEIERTVAAPSVFIFPPSDEQLKSGTASVVCLLNNFYPREAKVQWKVDNALQSGNSQESVTEQDSKDSTYSLSSTLTLSKADYEKHKVYACEVTHQGLSSPVTKSFNRGEC
notes: also called Ho Ab L328_06M
B2: GpH7-B3 variant E333_14T/GpL16-k0 (antibody, human IgG1, kappa)
heavy: not shown
light: B1 light
notes: also called Ho Ab E333_14T
B3: GpH7-B3 variant I336_18N/GpL16-k0 (antibody, human IgG1, kappa)
heavy: not shown
light: B1 light
notes: also called Ho Ab I336_18N
B4: GpH7-B3 variant L328_20W/GpL16-k0 (antibody, human IgG1, kappa)
heavy: not shown
light: B1 light
notes: also called Ho Ab L328_20W
B5: GpH7-B3 variant S337_08L/GpL16-k0 (antibody, human IgG1, kappa)
heavy: not shown
light: B1 light
notes: also called Ho Ab S337_08L
B6: GpH7-B3 variant E333_09D/GpL16-k0 (antibody, human IgG1, kappa)
heavy: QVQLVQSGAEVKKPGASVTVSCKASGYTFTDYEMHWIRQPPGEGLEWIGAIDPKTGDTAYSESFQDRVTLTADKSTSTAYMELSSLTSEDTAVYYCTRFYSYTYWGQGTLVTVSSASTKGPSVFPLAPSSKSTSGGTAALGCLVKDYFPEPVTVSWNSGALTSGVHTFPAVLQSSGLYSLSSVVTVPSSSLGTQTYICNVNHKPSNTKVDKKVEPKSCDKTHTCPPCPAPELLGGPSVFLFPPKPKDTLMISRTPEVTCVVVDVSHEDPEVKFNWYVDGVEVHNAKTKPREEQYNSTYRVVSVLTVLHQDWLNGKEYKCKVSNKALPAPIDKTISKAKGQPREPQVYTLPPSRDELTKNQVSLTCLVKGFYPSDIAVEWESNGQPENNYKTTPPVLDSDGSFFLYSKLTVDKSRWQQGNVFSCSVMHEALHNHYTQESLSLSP
light: B1 light
notes: also called Ho Ab E333_09D
B7: GpH7-B3 variant K326_19Q/GpL16-k0 (antibody, human IgG1, kappa)
heavy: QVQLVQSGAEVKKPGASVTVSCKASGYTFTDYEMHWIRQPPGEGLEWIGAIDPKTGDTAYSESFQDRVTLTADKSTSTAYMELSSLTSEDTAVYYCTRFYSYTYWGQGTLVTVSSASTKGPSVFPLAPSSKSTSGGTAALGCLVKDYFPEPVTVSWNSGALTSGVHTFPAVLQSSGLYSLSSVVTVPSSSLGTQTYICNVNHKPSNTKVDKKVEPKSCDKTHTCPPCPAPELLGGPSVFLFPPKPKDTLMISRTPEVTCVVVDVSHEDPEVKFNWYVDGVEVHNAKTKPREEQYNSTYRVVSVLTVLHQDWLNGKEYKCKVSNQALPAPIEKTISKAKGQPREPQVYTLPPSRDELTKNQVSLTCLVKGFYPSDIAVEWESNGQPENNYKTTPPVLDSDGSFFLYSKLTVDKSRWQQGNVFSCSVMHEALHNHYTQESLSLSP
light: B1 light
notes: also called Ho Ab K326_19Q
B8: GpH7-B3 variant K326_10E/GpL16-k0 (antibody, human IgG1, kappa)
heavy: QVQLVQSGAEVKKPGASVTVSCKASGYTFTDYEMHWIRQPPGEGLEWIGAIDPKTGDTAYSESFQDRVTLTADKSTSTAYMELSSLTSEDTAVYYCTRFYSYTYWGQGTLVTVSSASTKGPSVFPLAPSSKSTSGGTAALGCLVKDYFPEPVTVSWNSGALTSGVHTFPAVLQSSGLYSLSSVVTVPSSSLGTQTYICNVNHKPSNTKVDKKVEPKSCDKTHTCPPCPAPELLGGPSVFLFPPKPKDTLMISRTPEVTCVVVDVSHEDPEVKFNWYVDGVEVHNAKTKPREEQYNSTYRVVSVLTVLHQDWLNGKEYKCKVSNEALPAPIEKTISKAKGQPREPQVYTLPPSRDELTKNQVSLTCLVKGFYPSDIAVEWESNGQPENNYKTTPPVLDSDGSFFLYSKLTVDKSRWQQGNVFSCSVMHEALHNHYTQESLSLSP
light: B1 light
notes: also called Ho Ab K326_10E
B9: GpH7-B3 variant L235_15Y/GpL16-k0 (antibody, human IgG1, kappa)
heavy: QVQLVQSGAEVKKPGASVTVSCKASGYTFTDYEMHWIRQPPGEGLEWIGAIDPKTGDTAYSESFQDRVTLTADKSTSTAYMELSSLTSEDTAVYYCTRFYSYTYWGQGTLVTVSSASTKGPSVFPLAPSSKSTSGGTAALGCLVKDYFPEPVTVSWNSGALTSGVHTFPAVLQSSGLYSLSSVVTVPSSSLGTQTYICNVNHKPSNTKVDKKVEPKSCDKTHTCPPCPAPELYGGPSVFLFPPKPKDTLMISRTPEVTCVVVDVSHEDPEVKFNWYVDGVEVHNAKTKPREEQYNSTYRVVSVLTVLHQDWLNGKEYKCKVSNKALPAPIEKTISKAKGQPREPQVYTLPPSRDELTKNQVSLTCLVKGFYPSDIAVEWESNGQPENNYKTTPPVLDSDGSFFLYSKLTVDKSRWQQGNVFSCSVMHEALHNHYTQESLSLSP
light: B1 light
notes: also called Ho Ab L235_15Y
B10: GpH7-B3 variant L234_15Y/GpL16-k0 (antibody, human IgG1, kappa)
heavy: not shown
light: B1 light
notes: also called Ho Ab L234_15Y
B11: GpH7-B3 variant G236_04F/GpL16-k0 (antibody, human IgG1, kappa)
heavy: not shown
light: B1 light
notes: also called Ho Ab G236_04F
B12: GpH7-B3 variant A330_19Q/GpL16-k0 (antibody, human IgG1, kappa)
heavy: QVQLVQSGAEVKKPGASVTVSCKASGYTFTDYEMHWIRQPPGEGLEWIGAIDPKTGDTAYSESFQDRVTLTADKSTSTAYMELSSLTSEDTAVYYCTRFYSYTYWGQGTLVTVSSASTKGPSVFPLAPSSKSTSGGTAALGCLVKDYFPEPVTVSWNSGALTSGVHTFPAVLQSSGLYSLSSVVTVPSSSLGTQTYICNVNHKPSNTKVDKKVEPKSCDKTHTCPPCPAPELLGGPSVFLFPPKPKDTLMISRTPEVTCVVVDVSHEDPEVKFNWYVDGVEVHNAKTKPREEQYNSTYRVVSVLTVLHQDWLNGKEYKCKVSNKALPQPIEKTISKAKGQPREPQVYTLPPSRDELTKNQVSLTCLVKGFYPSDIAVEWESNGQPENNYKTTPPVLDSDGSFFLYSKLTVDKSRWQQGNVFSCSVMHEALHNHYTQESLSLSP
light: B1 light
notes: also called Ho Ab A330_19Q
B13: GpH7-B3 variant K334_08L/GpL16-k0 (antibody, human IgG1, kappa)
heavy: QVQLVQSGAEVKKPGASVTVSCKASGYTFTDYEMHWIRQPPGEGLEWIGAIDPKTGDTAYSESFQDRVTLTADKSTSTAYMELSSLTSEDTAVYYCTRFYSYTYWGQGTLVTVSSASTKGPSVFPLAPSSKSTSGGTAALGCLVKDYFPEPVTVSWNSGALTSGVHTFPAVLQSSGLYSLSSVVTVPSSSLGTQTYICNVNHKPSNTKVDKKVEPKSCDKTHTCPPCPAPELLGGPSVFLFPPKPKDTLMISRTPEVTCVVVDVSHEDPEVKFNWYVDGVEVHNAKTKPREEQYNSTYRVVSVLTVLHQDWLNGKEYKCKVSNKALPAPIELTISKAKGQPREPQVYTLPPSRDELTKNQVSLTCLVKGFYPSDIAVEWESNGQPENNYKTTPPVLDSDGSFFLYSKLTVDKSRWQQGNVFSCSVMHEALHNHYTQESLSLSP
light: B1 light
notes: also called Ho Ab K334_08L
B14: GpH7-B3 variant Y296_04F/GpL16-k0 (antibody, human IgG1, kappa)
heavy: not shown
light: B1 light
notes: also called Ho Ab Y296_04F
B15: GpH7-B3 variant I336_10E/GpL16-k0 (antibody, human IgG1, kappa)
heavy: not shown
light: B1 light
notes: also called Ho Ab I336_10E
B16: GpH7-B3 variant K326_07I/GpL16-k0 (antibody, human IgG1, kappa)
heavy: not shown
light: B1 light
notes: also called Ho Ab K326_07I
B17: GpH7-B3 variant S337_20W/GpL16-k0 (antibody, human IgG1, kappa)
heavy: not shown
light: B1 light
notes: also called Ho Ab S337_20W
B18: GpH7-B3 variant I336_08L/GpL16-k0 (antibody, human IgG1, kappa)
heavy: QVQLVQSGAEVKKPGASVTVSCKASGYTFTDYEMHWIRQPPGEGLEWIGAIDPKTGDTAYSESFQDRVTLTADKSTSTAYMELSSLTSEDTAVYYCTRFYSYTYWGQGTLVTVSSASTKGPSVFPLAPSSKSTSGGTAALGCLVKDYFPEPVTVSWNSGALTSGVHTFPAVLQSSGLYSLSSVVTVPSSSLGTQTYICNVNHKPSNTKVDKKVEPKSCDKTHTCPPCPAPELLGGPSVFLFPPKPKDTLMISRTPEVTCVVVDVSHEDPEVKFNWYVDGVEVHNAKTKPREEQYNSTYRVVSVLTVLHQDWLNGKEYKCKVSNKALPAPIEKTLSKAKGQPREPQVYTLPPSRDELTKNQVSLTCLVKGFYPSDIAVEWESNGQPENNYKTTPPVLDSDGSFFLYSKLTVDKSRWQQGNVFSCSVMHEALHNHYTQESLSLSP
light: B1 light
notes: also called Ho Ab I336_08L
B19: GpH7-B3 variant K334_19Q/GpL16-k0 (antibody, human IgG1, kappa)
heavy: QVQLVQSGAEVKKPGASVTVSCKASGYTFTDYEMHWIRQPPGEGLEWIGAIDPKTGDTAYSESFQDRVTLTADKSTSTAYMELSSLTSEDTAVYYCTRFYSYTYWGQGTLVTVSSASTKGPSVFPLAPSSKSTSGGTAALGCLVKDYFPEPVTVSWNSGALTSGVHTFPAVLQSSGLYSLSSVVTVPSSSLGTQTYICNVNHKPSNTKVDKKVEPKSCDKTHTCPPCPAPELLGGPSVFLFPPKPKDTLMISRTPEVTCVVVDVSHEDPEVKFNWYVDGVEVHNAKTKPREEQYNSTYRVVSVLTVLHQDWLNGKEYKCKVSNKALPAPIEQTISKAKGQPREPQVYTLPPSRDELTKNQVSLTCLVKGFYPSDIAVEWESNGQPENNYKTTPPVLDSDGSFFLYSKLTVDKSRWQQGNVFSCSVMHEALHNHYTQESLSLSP
light: B1 light
notes: also called Ho Ab K334_19Q
B20: GpH7-B3 variant I336_06M/GpL16-k0 (antibody, human IgG1, kappa)
heavy: not shown
light: B1 light
notes: also called Ho Ab I336_06M
B21: GpH7-B3 variant H268_19Q/GpL16-k0 (antibody, human IgG1, kappa)
heavy: not shown
light: B1 light
notes: also called Ho Ab H268_19Q
B22: GpH7-B3 variant S267_09D/GpL16-k0 (antibody, human IgG1, kappa)
heavy: not shown
light: B1 light
notes: also called Ho Ab S267_09D
B23: GpH7-B3 variant A330_16H/GpL16-k0 (antibody, human IgG1, kappa)
heavy: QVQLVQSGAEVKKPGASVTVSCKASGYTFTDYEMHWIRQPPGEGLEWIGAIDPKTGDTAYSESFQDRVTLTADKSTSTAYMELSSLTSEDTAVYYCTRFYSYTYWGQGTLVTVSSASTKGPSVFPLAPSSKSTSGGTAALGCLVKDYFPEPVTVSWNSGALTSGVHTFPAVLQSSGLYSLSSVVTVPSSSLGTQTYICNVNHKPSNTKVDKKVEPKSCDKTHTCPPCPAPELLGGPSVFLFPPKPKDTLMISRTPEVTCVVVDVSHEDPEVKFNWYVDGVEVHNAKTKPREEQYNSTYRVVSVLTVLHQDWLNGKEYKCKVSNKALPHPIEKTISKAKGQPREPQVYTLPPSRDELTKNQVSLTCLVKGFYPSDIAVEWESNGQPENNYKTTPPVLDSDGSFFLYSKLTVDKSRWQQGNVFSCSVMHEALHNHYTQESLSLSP
light: B1 light
notes: also called Ho Ab A330_16H
B24: GpH7-B3 variant G236_07I/GpL16-k0 (antibody, human IgG1, kappa)
heavy: not shown
light: B1 light
notes: also called Ho Ab G236_07I
B25: GpH7-B3 variant L328_14T/GpL16-k0 (antibody, human IgG1, kappa)
heavy: not shown
light: B1 light
notes: also called Ho Ab L328_14T
B26: GpH7-B3 variant L235_04F/GpL16-k0 (antibody, human IgG1, kappa)
heavy: not shown
light: B1 light
notes: also called Ho Ab L235_04F
B27: GpH7-B3 variant I336_03V/GpL16-k0 (antibody, human IgG1, kappa)
heavy: not shown
light: B1 light
notes: also called Ho Ab I336_03V
B28: GpH7-A5/GpH7-B3 variant A327_12R/GpL16-k0 (antibody, human IgG1, kappa)
heavy 1: not shown
heavy 2: not shown
light: B1 light
notes: He Ab: mutation in one H chain only; also called He Ab

Assays:
FcγRIIa H = FcγRIIa H (human, UniProt P12318 34-217); assay: SPR Biacore, captured antibody, FcγR analyte; vs GpH7-B3/GpL16-k0 = 100
FcγRIa = molecular target: T1, FcγRIa (human, UniProt P12314 16-292); assay: SPR (Biacore), captured antibody, FcγR as analyte, relative binding
T1 construct: extracellular domain; Soluble extracellular domain with C-terminal His tag, used as analyte; also called FcgRI; CD64; not shown: His tag at the C terminus
Procedure: The heterodimerized antibodies He Abs in which one of the H chains was introduced with an alteration were assayed for their binding activities to each activating FcγR and inhibitory FcγR according to the method described in Example 4. […] The activating FcγRs in FIGS. 26, 27, 28, and 29 are FcγRIa, FcγRIIa (R), FcγRIIa (H), and FcγRIIIa, respectively.
Analysis of interaction between objective antibody and the FcγR was carried out using Biacore T100 (GE Healthcare). HBS-EP+ (GE Healthcare) was used as the running buffer, and the measurement temperature was set to 25° C. Chips produced by immobilizing the antigen peptide by the amine coupling method to a Series S Sencor Chip CM5 (GE Healthcare), or alternatively, chips produced by allowing preliminarily biotinylated antigen peptides to interact with and immobilize onto a Series S Sensor Chip SA (certified) (GE Healthcare) were used. Antibodies of interest were captured onto an antigen peptide-immobilized chip, and allowed to interact to each FcγR diluted with running buffer. To regenerate and repeatedly use the chip, the antibodies captured on the chip were washed off by reacting 10 mM glycine-HCl, pH 1.5.

Chain of FcγRIIa H (P12318 34-217): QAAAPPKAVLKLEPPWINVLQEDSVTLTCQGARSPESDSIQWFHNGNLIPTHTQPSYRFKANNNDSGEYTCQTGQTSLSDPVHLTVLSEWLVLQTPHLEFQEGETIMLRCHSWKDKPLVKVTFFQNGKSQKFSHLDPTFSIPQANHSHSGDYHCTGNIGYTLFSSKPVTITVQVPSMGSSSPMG
T1 sequence (P12314 16-292): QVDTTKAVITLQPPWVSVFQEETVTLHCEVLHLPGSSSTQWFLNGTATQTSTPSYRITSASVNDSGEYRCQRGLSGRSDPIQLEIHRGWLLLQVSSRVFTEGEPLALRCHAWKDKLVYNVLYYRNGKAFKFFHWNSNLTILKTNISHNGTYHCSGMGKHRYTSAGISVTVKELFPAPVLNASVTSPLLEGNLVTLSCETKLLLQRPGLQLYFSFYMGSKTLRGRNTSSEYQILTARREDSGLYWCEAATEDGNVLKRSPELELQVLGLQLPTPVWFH

Binder | Ho/Con_2aH (FcγRIIa H) | He/Con_1a (FcγRIa)
B1 | 100 % of control | –
B2 | 90.4 % of control | –
B3 | 94.3 % of control | –
B4 | 112 % of control | –
B5 | 93.1 % of control | –
B6 | 103 % of control | –
B7 | 100 % of control | –
B8 | 101 % of control | –
B9 | 107 % of control | –
B10 | 43.8 % of control | –
B11 | 63.2 % of control | –
B12 | 99.2 % of control | –
B13 | 103 % of control | –
B14 | 95 % of control | –
B15 | 93.4 % of control | –
B16 | 78.1 % of control | –
B17 | 96.6 % of control | –
B18 | 101 % of control | –
B19 | 97.2 % of control | –
B20 | 100 % of control | –
B21 | 102 % of control | –
B22 | 91.5 % of control | –
B23 | 101 % of control | –
B24 | 101 % of control | –
B25 | 110 % of control | –
B26 | 101 % of control | –
B27 | 90.4 % of control | –
B28 | – | 86.7 % of GpH7-A5/GpH7-B3/GpL16-k0
